# Experimental data as given in PMC4272012 (Nature methods, 2014).
# Target: GFPuv (Aequorea victoria, UniProt P42212, 15N-labeled)
row,Binder,binding result
1,LaG-2 (VHH) VHH: QVQLVESGGGLVQAGGSLRLSCAASGRTFSNYAMGWFRQAPGKEREFVAAISWTGVSTYYADSVKGRFTISRDNDKNTVYVQMNSLIPEDTAIYYCAAVRARSFSDTYSRVNEYDYWGQGTQVTV,binds
2,LaG-17 (VHH) VHH: DVQLVESGGGLVQAGGSLRLSCAASGRTISMAAMSWFRQAPGKEREFVAGISRSAGSAVHADSVKGRFTISRDNTKNTLYLQMNSLKAEDTAVYYCAVRTSGFFGSIPRTGTAFDYWGQGTQVTVS,binds
3,LaG-9 (VHH) VHH: DVQLVESGGGLVQAGGSLRLSCAASGRTFSTSAMGWFRQAPGKEREFVARITWSAGYTAYSDSVKGRFTISRDKAKNTVYLQMNSLKPEDTAVYYCASRSAGYSSSLTRREDYAYWGQGTQVTVS,binds
4,LaG-16 (VHH) VHH: QVQLVESGGRLVQAGDSLRLSCAASGRTFSTSAMAWFRQAPGREREFVAAITWTVGNTILGDSVKGRFTISRDRAKNTVDLQMDNLEPEDTAVYYCSARSRGYVLSVLRSVDSYDYWGQGTQVTVS,binds

# The next lines start with the values.
row,binding result,Binder
1,binds,LaG-27 (VHH) VHH: DVQLVESGGGLVQAGGSLRLSCTASGLTISTYNIGWFRQAPGKEREFVGIIIRNGDTTYYADSVKGRFTISRDNAKNTVYLQMNSVKPADAAVYSCGATVRAGAAAEQYNSYIFRGQGTQVTV
2,binds,LaG-21 (VHH) VHH: QVQLVESGGGLVQAGGSLRLSCAASGPTGAMAWFRQAPGMEREFVGGISGSETDTYYADFVKGRLTVDRDNVKNTVDLQMNSLKPEDTAVYYCAARRRVTLFTSRADYDFWGQGTQVTVS
3,binds,LaG-19 (VHH) VHH: QVQLVESGGGLVQAGGSLRLSCAASGPTGAMAWFRQAPGKEREFVGGISRSGTDTYYVDSVKGRFTIDRDNAKNTVYLQMNSLKPEDTAVYYCAARRSQILFTSRTDYEFWGQGTQVTV
4,binds,LaG-41 (VHH) VHH: DVQLVESGGGLVQAGGSLRLSCAASGPTGAMAWFRQAPGKEREFVGGISGSETDTYYVDSVKGRFTVDRDNVKNTVYLQMNSLKPEDTAVYYCAARRRITLFTSRTDYDFWGRGTQVTV
5,binds,LaG-43 (VHH) VHH: DVQLVESGGGLVQPGGSLRLSCEASGGAFSTVAMGWFRQAPGKEREFVGAITWTAGSTYYADSAKGRFTISRDNAKNTVHLQMNSLKPEDTAVYYCAQRVRGFFGPLRTTPSWYEYWGQGTQVTVS
6,binds,LaG-26 (VHH) VHH: QVQLVESGGGLVQAGASMRLSCAASGITFSLYHWVWFRQAAGREHEFVAGIIRSGGETLSADSVKDRFIISRDDAKNTLYLQMNMLQPEDTATYYCAATHRADWYSSAFREYIFRGQGTQVTVS
7,binds,LaG-14 (VHH) VHH: QVQLVESGGGLVQAGGSLRLSCAASGRTYSISAMGWFRQAPGKEREFVAGISRSGGTTYYADPVKGRFTISRDNAKNTVYLQMNSLKPEDTAVYYCAARARGWTTFPAREIEYDYWGQGTQVTV
